Measurements as given in IntAct's records for PubMed 25783203.

B1: Vacuolar protein sorting-associated protein 33A (Homo sapiens), Q96AX1 (parent)
chain: MAAHLSYGRVNLNVLREAVRRELREFLDKCAGSKAIVWDEYLTGPFGLIAQYSLLKEHEVEKMFTLKGNRLPAADVKNIIFFVRPRLELMDIIAENVLSEDRRGPTRDFHILFVPRRSLLCEQRLKDLGVLGSFIHREEYSLDLIPFDGDLLSMESEGAFKECYLEGDQTSLYHAAKGLMTLQALYGTIPQIFGKGECARQVANMMIRMKREFTGSQNSIFPVFDNLLLLDRNVDLLTPLATQLTYEGLIDEIYGIQNSYVKLPPEKFAPKKQGDGGKDLPTEAKKLQLNSAEELYAEIRDKNFNAVGSVLSKKAKIISAAFEERHNAKTVGEIKQFVSQLPHMQAARGSLANHTSIAELIKDVTTSEDFFDKLTVEQEFMSGIDTDKVNNYIEDCIAQKHSLIKVLRLVCLQSVCNSGLKQKVLDYYKREILQTYGYEHILTLHNLEKAGLLKPQTGGRNNYPTIRKTLRLWMDDVNEQNPTDISYVYSGYAPLSVRLAQLLSRPGWRSIEEVLRILPGPHFEERQPLPTGLQKKRQPGENRVTLIFFLGGVTFAEIAALRFLSQLEDGGTEYVIATTKLMNGTSWIEALMEKPF
partner: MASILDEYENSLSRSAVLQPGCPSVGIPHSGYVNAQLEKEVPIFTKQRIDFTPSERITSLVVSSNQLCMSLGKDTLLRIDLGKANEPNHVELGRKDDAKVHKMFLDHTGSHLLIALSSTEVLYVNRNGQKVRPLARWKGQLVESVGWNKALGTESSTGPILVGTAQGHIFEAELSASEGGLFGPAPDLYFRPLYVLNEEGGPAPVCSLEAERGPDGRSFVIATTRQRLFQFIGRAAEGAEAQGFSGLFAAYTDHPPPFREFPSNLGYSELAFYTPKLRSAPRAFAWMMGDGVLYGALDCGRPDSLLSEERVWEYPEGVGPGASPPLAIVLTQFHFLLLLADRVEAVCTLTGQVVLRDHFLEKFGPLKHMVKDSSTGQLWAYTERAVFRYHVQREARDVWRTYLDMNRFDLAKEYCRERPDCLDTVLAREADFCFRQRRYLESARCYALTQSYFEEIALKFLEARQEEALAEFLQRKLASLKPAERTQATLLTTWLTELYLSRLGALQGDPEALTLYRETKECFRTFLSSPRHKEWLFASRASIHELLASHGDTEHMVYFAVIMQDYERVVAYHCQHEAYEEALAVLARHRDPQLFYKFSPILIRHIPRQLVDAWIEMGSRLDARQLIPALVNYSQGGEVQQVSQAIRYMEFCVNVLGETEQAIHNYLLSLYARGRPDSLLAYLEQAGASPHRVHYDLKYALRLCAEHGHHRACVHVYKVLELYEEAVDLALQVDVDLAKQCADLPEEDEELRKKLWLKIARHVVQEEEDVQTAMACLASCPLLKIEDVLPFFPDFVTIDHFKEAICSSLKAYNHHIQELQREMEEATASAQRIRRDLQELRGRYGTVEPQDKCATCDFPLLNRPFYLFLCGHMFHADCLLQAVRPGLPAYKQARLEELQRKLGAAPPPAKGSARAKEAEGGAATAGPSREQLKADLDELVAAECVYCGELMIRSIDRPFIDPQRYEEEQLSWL

Variants of: B1
Settings: with vps18_human VPS18, Q9P253
K429D;I441K was tested, and the “effect of a mutation on the interaction” value was “disrupting interaction”.
With K429D;Y438D the “effect of a mutation on the interaction” value was “disrupting interaction”.
With Y438D;I441K the “effect of a mutation on the interaction” value was “disrupting interaction”.
